Results on nine molecules are retold here after article doi:10.1101/718155 (2019).

B1: S100B (natural protein)
chain: MSELEKAMVALIDVFHQYSGREGDKHKLKKSELKELINNELSHFLEEIKEQEVVDKVMETLDNDGDGECDFQEFMAFVAMVTTACHEFFEHE

The target of assay [1] is S100A1. Put plainly: FP; competitive.
Assay [2] concerns the target S100A5. Put plainly: FP; competitive.
Assay [3] deals with S100P. As to the kind of experiment: FP; competitive.
The target of assay [4] is S100A1. Put plainly: FP; direct.
In assay [5] the target is S100A5. Put plainly: FP; direct.
Assay [6] has as its target S100P. Put plainly: FP; direct.
Assay [7] concerns the target B1. As to the kind of experiment: ITC; 310 K; second site. Background: ITC needs no label: the signal is the heat of the interaction.
Assay [8] concerns the target B1. Put plainly: FP; direct.
Assay [9] has as its target B1. As to the kind of experiment: ITC; 310 K.
In assay [10] the target is B1. Put plainly: FP; competitive.
Assay [11] addresses B1. As to the kind of experiment: ITC; 298 K.
The target of assay [12] is S100A6. As to the kind of experiment: FP; competitive.
For assay [13], the target named is S100A2. Put plainly: FP; competitive.
For assay [14], the target named is S100A4. As to the kind of experiment: FP; competitive.
The target of assay [15] is S100A11. As to the kind of experiment: FP; direct.
Assay [16] concerns the target S100A6. As to the kind of experiment: FP; direct.
For assay [17], the target named is S100A3. As to the kind of experiment: FP; direct.
Assay [18] deals with S100A14. As to the kind of experiment: FP; direct.
For assay [19], the target named is S100G. As to the kind of experiment: FP; direct.
Assay [20] addresses S100A2. Put plainly: FP; direct.
Assay [21] addresses S100A15. Put plainly: FP; direct.
Assay [22] concerns the target S100A7. Put plainly: FP; direct.
Assay [23] has as its target S100A4. Put plainly: FP; direct.
In assay [24] the target is S100A1. As to the kind of experiment: ITC; 298 K.
Assay [25] deals with RSK1-CTKD. As to the kind of experiment: FP; competitive.
Assay [26] has as its target MK2. Put plainly: FP; competitive.
The target in assay [27] is FOR20. Put plainly: FP; competitive.
Assay [28] has as its target S100A5. As to the kind of experiment: ITC; 310 K.
For assay [29], the target named is S100A1. As to the kind of experiment: ITC; 310 K.
In assay [30] the target is S100A8. As to the kind of experiment: FP; direct.
Assay [31] addresses S100A13. Put plainly: FP; direct.
In assay [32] the target is S100Z. As to the kind of experiment: FP; direct.
Assay [33] has as its target S100A10. Put plainly: FP; direct.
For assay [34], the target named is S100A12. As to the kind of experiment: FP; direct.
In assay [35] the target is S100A9. As to the kind of experiment: FP; direct.
Assay [36] addresses S100A8. As to the kind of experiment: FP; competitive.
In assay [37] the target is S100A11. Put plainly: FP; competitive.
Assay [38] deals with S100A3. Put plainly: FP; competitive.
For assay [39], the target named is S100A10. As to the kind of experiment: FP; competitive.
In assay [40] the target is S100A6. Put plainly: ITC; 310 K.

Broadly, the Kd is the equilibrium constant for the complex coming apart.

With TRTKIDWNKILS [CapZ (265-276) peptide], the Kd in [1] was found to be 5.2 µM; in [2], 5.4 µM; in [3], 4.1 µM; in assay [4], 8.9 µM; in [5], 4.7 µM; in [6], 11 µM. The Kd in [7] stood at 0.94 µM; in assay [8] it was 2.3 µM; in [9], 3.9 µM; in assay [10], 1.8 µM.
Molecule GAMAATYSALNSSKPTPQLKPIESSILAQRRVRKLPSTTL [RSK1 (696-735) peptide] showed a Kd in assay [11] of 12 µM.
Take RKLQRELEDATETADAMNREVSSLKNKLRRGDLPFVVPRRMARK [NMIIA (1894-1937) peptide]: the equilibrium dissociation constant (Kd) was found to be 0.21 µM in assay [12]; 0.004 µM in assay [1]; 0.013 µM in assay [13]; 2.9 µM in [2]; 0.14 µM in assay [3]; 0.0088 µM in assay [14]. The Kd in assay [15] came to 49 µM; in assay [16] it was 0.58 µM; in assay [17], 5.5 µM; in assay [18], 98 µM; in assay [4], 0.033 µM; in [19], 21 µM. The dissociation constant (Kd) in [20] worked out at 0.057 µM; in [21], 17 µM; in [5] it was 5.8 µM; in [6] it was 0.99 µM; in [22], 13.1 µM; in [23] it was 0.026 µM. Further, the Kd came out at 0.009 µM in assay [24], 4.7 µM in [8] and 2.9 µM in [10].
NQVRPKLPLLKILHAAGAQ [MDM4 (25-43) peptide]: the Kd in [1] is 35 µM; in assay [13], 53 µM; in assay [2], 65 µM; in [4] it was 91 µM; in assay [20], 49 µM; in assay [5], 61 µM. Also, the Kd was 0.63 µM in assay [7], 0.2 µM in assay [8], 0.71 µM in [9] and 0.15 µM in [10].
For B1, the Kd in assay [25] was found to be 1.2 µM; in assay [26], 3.2 µM; in [27], 0.25 µM.
Turning to SEGLMNVLKKIYEDG [SIP (188-202) peptide], the Kd was 21 µM in assay [28]; 20 µM in [12]; 40 µM in assay [2]; 11 µM in assay [14]; 8.7 µM in assay [16]; 102 µM in assay [20]. The Kd is 42 µM in assay [5], 38 µM in [6], 42 µM in [23] and > 200 µM in assay [8].
RRLLFYKYVYKR [NCX1 (254-265) peptide]: the Kd was 6.4 µM in assay [29]; 2.6 µM in assay [1]; 5.2 µM in [2]; 56 µM in assay [30]; 52 µM in assay [15]; 87 µM in assay [31]. Moreover, the dissociation constant Kd in assay [16] amounted to 27 µM; in [17], 25 µM; in [18], 71 µM; in [4], 2.6 µM; in [19] it was 24 µM; in assay [20] it was 5.5 µM. For the same molecule, the Kd in assay [32] was determined as 11 µM; in assay [33] it was 53 µM; in assay [21], 28 µM; in [5], 4.6 µM; in assay [34] it was 170 µM; in assay [6] it was 4 µM. For the same molecule, the Kd is 20 µM in [35]; 30 µM in assay [22]; 15 µM in assay [23]; 7.7 µM in [8]; > 200 µM in [10].
Turning to VLQTWLQDLLRRGLVRAAQ [TRPM4 (129-147) peptide], the equilibrium dissociation constant (Kd) stood at 1.4 µM in [28]; 13 µM in [36]; 106 µM in [37]; 8.4 µM in assay [12]; 3.4 µM in assay [38]; 1.1 µM in [13]. Also, the Kd in [39] worked out at 125 µM; in [2], 2.3 µM; in assay [14], 35 µM; in assay [30] it was 3.8 µM; in [15], 2.4 µM; in assay [16] it was 1.4 µM. Moreover, the Kd is 0.91 µM in [17]; 12 µM in assay [18]; 0.38 µM in [4]; 1 µM in assay [20]; 17 µM in assay [33]; 0.6 µM in [5]. Moreover, the Kd is 0.93 µM in assay [6]; 21 µM in assay [35]; 5.9 µM in assay [23]; 16 µM in assay [8]; > 200 µM in assay [10].
In the case of MAATAAAVVAEEDTELRDLLVQTLENSGVLNRIKAELRAAVFLALEEQ [FOP (1-48) peptide], the Kd amounted to 0.088 µM in [40]; 0.0056 µM in assay [12]; 0.27 µM in [38]; 0.35 µM in assay [1]; 0.081 µM in [13]; 0.56 µM in assay [2]. Moreover, the figures for the Kd in [3], in [14] and in assay [10] were 0.066 µM, 0.048 µM and 1.2 µM, respectively.
